Measured values published in paper PMC6457538.

Target: HoLaMa DNA polymerase (Klenow sub-fragment lacking the 3'-5' exonuclease domain) (UniProt P00582)
Assay: intrinsic tryptophan fluorescence quenching titration
Conditions: 500 nM enzyme; n = 1.24 ± 0.03 DNA per enzyme; no dNTP; Kd titration: 50 mM sodium phosphate pH 8.0, 50 mM NaCl, temperature not stated in the material; stopped-flow: 50 mM Tris-HCl pH 8.0, 0.5 mM EDTA, 10 mM MgCl2 …

UniProt P00582, sequence (P00582 whole entry, the tested form may be a part): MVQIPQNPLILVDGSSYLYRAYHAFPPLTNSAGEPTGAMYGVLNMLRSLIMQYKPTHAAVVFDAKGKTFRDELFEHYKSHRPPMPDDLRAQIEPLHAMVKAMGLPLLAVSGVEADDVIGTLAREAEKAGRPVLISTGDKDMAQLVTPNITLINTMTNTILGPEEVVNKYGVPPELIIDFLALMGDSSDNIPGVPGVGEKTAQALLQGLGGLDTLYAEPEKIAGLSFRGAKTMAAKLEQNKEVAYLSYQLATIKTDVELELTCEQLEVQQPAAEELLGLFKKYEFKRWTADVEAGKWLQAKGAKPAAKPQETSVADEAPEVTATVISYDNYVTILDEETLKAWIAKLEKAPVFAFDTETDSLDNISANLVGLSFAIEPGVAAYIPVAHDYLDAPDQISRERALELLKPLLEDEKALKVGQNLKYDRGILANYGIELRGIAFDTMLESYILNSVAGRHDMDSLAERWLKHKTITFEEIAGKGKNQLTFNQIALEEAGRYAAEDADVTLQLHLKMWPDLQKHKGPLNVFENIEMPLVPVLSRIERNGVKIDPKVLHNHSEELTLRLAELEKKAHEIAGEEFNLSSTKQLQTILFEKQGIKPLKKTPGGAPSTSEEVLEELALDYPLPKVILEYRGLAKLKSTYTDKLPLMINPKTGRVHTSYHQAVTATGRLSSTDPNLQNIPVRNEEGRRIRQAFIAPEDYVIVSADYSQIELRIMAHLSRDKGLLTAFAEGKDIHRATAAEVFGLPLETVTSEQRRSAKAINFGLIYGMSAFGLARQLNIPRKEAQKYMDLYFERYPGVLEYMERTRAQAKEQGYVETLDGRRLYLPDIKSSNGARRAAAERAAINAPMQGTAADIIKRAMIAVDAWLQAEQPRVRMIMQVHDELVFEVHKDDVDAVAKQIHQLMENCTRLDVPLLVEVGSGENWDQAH

Sequence “AAAAAAAAAAAAAAAAAAAAAAAAAAAAAAAAGCGCGCGC / GCGCGCGCTTTTTTT [40mer polyA DNA (40mer template / 15mer primer)]” has a Kd of 35.1 nM.
